In patent publication US8580497B2, “Methods for detection of the oncogenic T1796A B-Raf mutation” (The Wellcome Trust, priority 2001, dated 2013):

Legend:
[1] = system: oncogenic Ras (V12Ras)
[2] = system: ERK in Mawi; details: colorectal, Ras wt, B-Raf V599E
Excerpt: (§1) The second approach is to examine the effects of the compound U0126, an inhibitor of MEK1/2, the only known substrates for B-Raf.

[3] = system: ERK in SK-MEL-28; details: SK-MEL-28, melanoma, B-Raf V599E
Excerpt: as §1

[4] = system: ERK in WM-266-4/WM-115; details: WM-266-4/WM-115, melanoma, B-Raf V599D
Excerpt: as §1

[5] = system: SK-MEL-28; details: SK-MEL-28, melanoma, B-Raf V599E
Excerpt: as §1

[6] = system: WM-266-4/WM-115; details: WM-266-4/WM-115, melanoma, B-Raf V599D
Excerpt: as §1

[7] = system: ERK in WM266.4 cells; experiment: ERK activity, Western blot with ppERK antibody; assay type: cell-based, human; details: compound at 10 μM
Method: FIG. 3B. Inhibition of ERK in melanoma cell lines using pharmacological reagents. WM266.4 or A375P cells were treated with 10 μM U0126, 10 μM BAY 43-9006 or DMSO as a control. Equivalent amounts of cellular proteins were resolved on SDS-gels and the levels of active ERK were determined using the ppERK antibody.
FIG. 6. Ablation of BRAF, but not CRAF blocks ERK activity in melanoma cells. WM-266.4 or Colo 829 cells were treated with a BRAF specific siRNA probe (BRAF), or the scrambled control (sBRAF), or a CRAF specific probe (CRAF), or its scrambled control (sCRAF), or oligofectamine (oligo) or left untreated (control) as indicated. The cells were incubated for the times indicated, and the Colo 829 cells were treated for 24 hours. The levels of ERK activity in equivalent amounts of cell extract was determined by Western blotting with the ppERK antibody.
In order to validate BRAF as a target in cancer, it is first tested whether the growth of cells that express activated, mutant forms of BRAF required the RAF-MEK-ERK signaling pathway for growth. To this end, melanoma and colorectal cell lines that harbour mutations in the BRAF gene are treated with pharmacological agents that block signaling through this pathway. Two compounds are tested. One is the compound U0126, which is a MEK inhibitor and which therefore uncouples RAF-ERK signaling in cells (Sebolt-Leopold et al., 1999). […]

[8] = target: cellular Ras (human); experiment: cell-based or functional assay

**Q.** How did the “^V12Ras stimulated kinase activity of B-Raf (immunoprecipitation kinase cascade assay, GST-MEK, GST-ERK and MBP as sequential substrates)” value (“^V12Ras stimulated kinase activity” below) [1] turn out when G463V B-Raf (myc-epitope tagged) was run?
**A.** All five mutants are stimulated by oncogenic Ras (^V12Ras). However, the fold activation for each of the mutants is reduced compared with wild-type B-Raf

**Q.** How did the “^V12Ras stimulated kinase activity” value [1] turn out when V599E B-Raf (myc-epitope tagged) was run?
**A.** the fold activation for each of the mutants is reduced compared with wild-type B-Raf (See FIG. 1A, B) and is particularly small in the case of ^V599EB-Raf

**Q.** For `N#CC(=C(/N)Sc1ccccc1N)/C(C#N)=C(\N)Sc1ccccc1N` [U0126], which “UO/ ERK-inhib” value [2] is on record?
**A.** >90%

**Q.** What about the “UO/ ERK-inhib” value [3] of the same compound?
**A.** >90%

**Q.** What about the “UO/ ERK-inhib” value [4] of the same compound?
**A.** >90%

**Q.** And the “U0 inhibit S” value [5]?
**A.** 98%

**Q.** And the “U0 inhibit S” value [6]?
**A.** >99%

**Q.** What about the “ERK activity (ppERK Western blot)” value [7] of the same compound?
**A.** strongly suppressed

**Q.** How did the “^V12Ras stimulated kinase activity” value [1] turn out when L596V B-Raf (myc-epitope tagged) was run?
**A.** All five mutants are stimulated by oncogenic Ras (^V12Ras). However, the fold activation for each of the mutants is reduced compared with wild-type B-Raf

**Q.** With G595R B-Raf (myc-epitope tagged) as the compound, how does the “^V12Ras stimulated kinase activity” value [1] read?
**A.** ^G595RB-Raf is also stimulated by ^V12Ras, but the activation was very weak, probably due to the low starting levels

**Q.** G468A B-Raf (myc-epitope tagged) was tested. Which “^V12Ras stimulated kinase activity” value [1] did it give?
**A.** All five mutants are stimulated by oncogenic Ras (^V12Ras). However, the fold activation for each of the mutants is reduced compared with wild-type B-Raf

**Q.** `CNC(=O)c1cc(Oc2ccc(NC(=O)Nc3ccc(Cl)c(C(F)(F)F)c3)cc2)ccn1` [BAY 43-9006] was tested. Which “ERK activity (ppERK Western blot)” value [7] did it give?
**A.** strongly suppressed

**Q.** How did the Y13-259 S-phase inhibition (percentage of cells that do not incorporate BrdU) after micro-injection; A2058 melanoma cells, Ras status blank, B-Raf V599E [8] turn out when monoclonal antibody Y13-259 was run?
**A.** 0%

**Q.** And the Y13-259 S-phase inhibition (percentage of cells that do not incorporate BrdU) after micro-injection; CaCO2 colorectal cells, Ras wt, B-Raf wt [8]?
**A.** 60%

**Q.** What about the Y13-259 S-phase inhibition (percentage of cells that do not incorporate BrdU) after micro-injection; DLD1 colorectal cells, Ras K13Asp/wt, B-Raf wt [8] of the same compound?
**A.** 40%

**Q.** What about the Y13-259 S-phase inhibition (percentage of cells that do not incorporate BrdU) after micro-injection; HCT-116 colorectal cells, Ras K13 Asp, B-Raf wt [8] of the same compound?
**A.** 95%

**Q.** What about the Y13-259 S-phase inhibition (percentage of cells that do not incorporate BrdU) after micro-injection; HMV11-Riken melanoma cells, Ras status blank, B-Raf wt [8] of the same compound?
**A.** 100%

**Q.** And the Y13-259 S-phase inhibition (percentage of cells that do not incorporate BrdU) after micro-injection; HT29 colorectal cells, Ras wt, B-Raf V599E [8]?
**A.** 15%

**Q.** What about the Y13-259 S-phase inhibition (percentage of cells that do not incorporate BrdU) after micro-injection; JW2 colorectal cells, Ras K12, B-Raf wt [8] of the same compound?
**A.** 79%

**Q.** What about the Y13-259 S-phase inhibition (percentage of cells that do not incorporate BrdU) after micro-injection; LS174T colorectal cells, Ras K12Asp/wt, B-Raf wt [8] of the same compound?
**A.** 84%

**Q.** What about the Y13-259 S-phase inhibition (percentage of cells that do not incorporate BrdU) after micro-injection; LS411N colorectal cells, Ras status blank, B-Raf V599E (first value) [8] of the same compound?
**A.** 0%

**Q.** And the Y13-259 S-phase inhibition (percentage of cells that do not incorporate BrdU) after micro-injection; LS411N colorectal cells, Ras status blank, B-Raf V599E (second value) [8]?
**A.** 0%

**Q.** And the Y13-259 S-phase inhibition (percentage of cells that do not incorporate BrdU) after micro-injection; Malme melanoma cells, Ras status blank, B-Raf V599E [8]?
**A.** 0%

**Q.** And the Y13-259 S-phase inhibition (percentage of cells that do not incorporate BrdU) after micro-injection; Mawi colorectal cells, Ras wt, B-Raf V599E [8]?
**A.** 5%

**Q.** And the Y13-259 S-phase inhibition (percentage of cells that do not incorporate BrdU) after micro-injection; NCI-H2087 NSCLC cell line pair, Ras onc, B-Raf L596V [8]?
**A.** 77%

**Q.** And the Y13-259 S-phase inhibition (percentage of cells that do not incorporate BrdU) after micro-injection; SK-MEL-28 melanoma cells, Ras b, B-Raf V599E [8]?
**A.** 4%

**Q.** What about the Y13-259 S-phase inhibition (percentage of cells that do not incorporate BrdU) after micro-injection; SK-Mel2 melanoma cells, Ras status blank, B-Raf wt [8] of the same compound?
**A.** 70%

**Q.** What about the Y13-259 S-phase inhibition (percentage of cells that do not incorporate BrdU) after micro-injection; SW480 colorectal cells, Ras K12, B-Raf wt [8] of the same compound?
**A.** 57%

**Q.** What about the Y13-259 S-phase inhibition (percentage of cells that do not incorporate BrdU) after micro-injection; SW620 colorectal cells, Ras onc, B-Raf wt [8] of the same compound?
**A.** 92%

**Q.** What about the Y13-259 S-phase inhibition (percentage of cells that do not incorporate BrdU) after micro-injection; WM-266-4/WM-115 melanoma cells, Ras b, B-Raf V599D [8] of the same compound?
**A.** 10%

**Q.** What about the Y13-259 S-phase inhibition (percentage of cells that do not incorporate BrdU) after micro-injection; colo205 colorectal cells, Ras wt, B-Raf V599E [8] of the same compound?
**A.** 3%

**Q.** What about the Y13-259 S-phase inhibition (percentage of cells that do not incorporate BrdU) after micro-injection; colo741 colorectal cells, Ras status blank, B-Raf V599E [8] of the same compound?
**A.** 0%
